From article PMC6609509 (Molecular psychiatry, 2019)

Target: full-length recombinant ABI1 (UniProt Q8IZP0-5 1-476)
Assay: SPR

B1: Shank3 fragment 4 (aa 668–858), S685I (domain or fragment, mouse, UniProt Q4ACU6 668-858, looked up)
chain: EEDGARRRAPPPPKRAPITTLTLRSKSMTAELEELASIRRRKGEKLDEILAVAAEPTLRPDIADADSRAATVKQRPTSRRITPAEISSLFERQGLPGPEKLPGSLRKGIPRTKSVGEDEKLASLLEGRFPRSTSMQDTVREGRGIPPPPQTAPPPPPAPYYFDSGPPPTFSPPPPPGRAYDTVRSSFKPGL
  fold increase in KD against wild-type fragment 4: ~4 fold
